Where only a bound is given, the exact number is not on record here.

The values below come from US12344663B2, “Anti-C3 antibodies and antigen-binding fragments thereof and their uses for treating eye or ocular diseases” (CDR-Life AG, priority 2021, dated 2025).

One data set has as its target human C3 (Homo sapiens, UniProt P01024). In words: SPR (Biacore T100) binding to human C3. The conditions noted are these: for Binding affinity to C3 and C3b compared to parental molecule Clone IV: in words. How it is done:
(§1) The kinetic parameters of the candidates are determined using a surface plasmon resonance (SPR) and Biacore T100 device. C3 and different variants thereof (Table 19) are immobilized as a ligand on a HC30M SPR sensor chip (XanTec bionanalytics, Germany) using EDC/[…] linking chemistry. Five increasing concentrations of each molecule (analyte) are consecutively injected using the single cycle kinetics (SCK) mode to determine the kinetic parameters. Regeneration between the candidates is done with 10 mM glycine*HCl, 2 M NaCl, pH 3.5. The data is fitted to a 1:1 Langmuir binding model and the kinetic parameters of on-rate (ka), off-rate (kd), and affinity […] were determined.
(In general: SPR reads the build-up and loss of mass on a sensor chip optically.)

In another data set the test system is complement pathways. Put plainly: Complement inhibition assays, comparison with parental Clone IV. In kind it is biochemical, human. The note with it: in words. An excerpt: To identify antibodies that block all 3 complement pathways, antibodies are screened using an enzyme immunoassay for the qualitative determination of functional classical, lectin and alternative complement pathways in human serum using the WEISLAB® Complement system Screen (Svar Life Science AB, Malmö, Sweden).

The nature of data set [1]: Concentration-dependent monomeric stability study at 37° C. In kind it is physicochemical. The note with it: for Monomeric purity/content loss after two weeks incubation at 37° C.: >100 mg/mL protein concentration; for Monomeric content after 2 weeks at 37° C. / Monomeric content at start: Clone XI 152 mg/mL, Clone X 100 mg/mL. As for the experimental part: The stability of Clone VI's heavy chain framework was explored by introducing framework substitutions, thereby creating inter alia Clone X (SEQ ID NO: 38). Clone X and its disulfide bond stabilized variant Clone XI (SEQ ID NO: 39) were compared in a stability study at 37° C. and >100 mg/mL protein concentration.

The target in a further data set is T1, human C3b (Homo sapiens, UniProt P01024).
T1 construct: C3b is derived from native C3 and is the larger of two elements formed by the cleavage of C3
T1 sequence (P01024 23-667 limits assumed): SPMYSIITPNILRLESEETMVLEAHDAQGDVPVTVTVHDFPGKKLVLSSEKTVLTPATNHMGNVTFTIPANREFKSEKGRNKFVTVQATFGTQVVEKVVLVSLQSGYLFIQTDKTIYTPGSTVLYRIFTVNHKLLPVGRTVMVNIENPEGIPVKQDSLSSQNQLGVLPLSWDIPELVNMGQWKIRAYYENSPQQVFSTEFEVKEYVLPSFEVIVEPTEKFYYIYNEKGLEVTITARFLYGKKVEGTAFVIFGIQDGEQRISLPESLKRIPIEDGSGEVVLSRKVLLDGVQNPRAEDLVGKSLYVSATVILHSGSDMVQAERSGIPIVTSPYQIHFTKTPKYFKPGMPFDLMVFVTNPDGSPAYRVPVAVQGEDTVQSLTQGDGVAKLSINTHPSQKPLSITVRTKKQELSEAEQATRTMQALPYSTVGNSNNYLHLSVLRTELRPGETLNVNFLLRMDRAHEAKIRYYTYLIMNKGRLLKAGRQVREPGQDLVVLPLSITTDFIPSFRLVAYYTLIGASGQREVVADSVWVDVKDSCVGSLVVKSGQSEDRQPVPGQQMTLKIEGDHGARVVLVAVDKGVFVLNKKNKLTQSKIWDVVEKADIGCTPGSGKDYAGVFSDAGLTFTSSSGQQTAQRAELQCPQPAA
T1 sequence (P01024 749-1663 limits assumed): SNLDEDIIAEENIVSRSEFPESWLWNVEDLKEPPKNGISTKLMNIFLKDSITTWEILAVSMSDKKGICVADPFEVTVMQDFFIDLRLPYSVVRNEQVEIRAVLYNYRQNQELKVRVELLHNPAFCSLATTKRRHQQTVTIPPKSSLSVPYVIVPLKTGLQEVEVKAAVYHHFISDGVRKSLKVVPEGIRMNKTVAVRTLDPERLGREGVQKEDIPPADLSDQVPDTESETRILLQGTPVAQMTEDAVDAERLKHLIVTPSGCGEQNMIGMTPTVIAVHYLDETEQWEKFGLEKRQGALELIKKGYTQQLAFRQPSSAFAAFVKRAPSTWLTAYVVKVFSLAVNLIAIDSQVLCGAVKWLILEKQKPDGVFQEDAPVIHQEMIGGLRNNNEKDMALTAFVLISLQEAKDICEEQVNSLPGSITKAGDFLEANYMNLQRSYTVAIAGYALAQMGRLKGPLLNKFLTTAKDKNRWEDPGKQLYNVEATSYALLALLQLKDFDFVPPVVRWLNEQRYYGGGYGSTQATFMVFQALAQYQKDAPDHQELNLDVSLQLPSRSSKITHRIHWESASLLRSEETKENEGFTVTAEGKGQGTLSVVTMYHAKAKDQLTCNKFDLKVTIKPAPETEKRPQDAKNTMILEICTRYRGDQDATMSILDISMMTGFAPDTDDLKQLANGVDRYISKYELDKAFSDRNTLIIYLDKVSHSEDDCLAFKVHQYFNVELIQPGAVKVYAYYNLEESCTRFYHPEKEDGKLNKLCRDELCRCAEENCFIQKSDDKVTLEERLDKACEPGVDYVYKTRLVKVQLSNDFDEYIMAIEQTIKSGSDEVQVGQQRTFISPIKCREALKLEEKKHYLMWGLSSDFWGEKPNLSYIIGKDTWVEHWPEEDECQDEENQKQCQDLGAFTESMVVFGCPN
In words: SPR (Biacore T100) binding to human C3b. How it is done:
as §1

Another data set addresses cyno C3. In words: SPR (Biacore T100) binding to cyno C3. More on the design: species or system cynomolgus (Macaca fascicularis). As for the experimental part: as §1
Data set [2] addresses T2, recombinant C3 (wild-type human C3) (Homo sapiens, UniProt P01024).
T2 construct: 6×His (N); made in house; host or cells: CHO (ExpiFectamine CHO Expression Kit)
In words: SPR (Biacore T100) binding to recombinant C3. How it is done:
as §1
(§2) Proteins are expressed with N-terminal 6×His tag and purified using a HisTrap Excel HP column (GE Healthcare), followed by a size-exclusion chromatography step (SUPERDEX®20010/300GL; GE Healthcare).

Data set [3] can be described thus: Viscosity at high concentrations, cone-plate-rheometer. In kind it is physicochemical. The conditions noted are these: 20° C., shear-rate 1000 s^−1. How it is done: Viscosity measurements are performed with the samples prepared for the storage stability study. In addition to the fully formulated samples (10 mM His pH 5.5, 275 mM sucrose, 0.02% w/v Polysorbate20), viscosity of each candidate is also measured in a minimal formulation (10 mM histidine pH 5.5). This is performed to evaluate the drug substance processability (e.g., filtration, pumping, diafiltration, etc.) of the candidates up to 125% of the final drug product concentration of 150 mg/ml.
Viscosity is measured at 20° C. at a shear-rate of 1000 s^−1 using a cone-plate-rheometer. Briefly, a stepwise increase of the shear rate up to 1,000 s^−1 is done collecting 100 data points, followed by a further increase of the shear rate up to 2000 s^−1, collecting another 10 data points. Finally, a stepwise decrease of the shear rate down to starting rate is done. Good drug product handling properties for filling and syringeability have been observed for all candidates

The target of a further data set is T3, human C3 P314L (Homo sapiens, UniProt P01024, P314L).
T3 construct: 6×His (N); made in house; host or cells: CHO (ExpiFectamine CHO Expression Kit)
T3 sequence (P01024 23-1663 P314L): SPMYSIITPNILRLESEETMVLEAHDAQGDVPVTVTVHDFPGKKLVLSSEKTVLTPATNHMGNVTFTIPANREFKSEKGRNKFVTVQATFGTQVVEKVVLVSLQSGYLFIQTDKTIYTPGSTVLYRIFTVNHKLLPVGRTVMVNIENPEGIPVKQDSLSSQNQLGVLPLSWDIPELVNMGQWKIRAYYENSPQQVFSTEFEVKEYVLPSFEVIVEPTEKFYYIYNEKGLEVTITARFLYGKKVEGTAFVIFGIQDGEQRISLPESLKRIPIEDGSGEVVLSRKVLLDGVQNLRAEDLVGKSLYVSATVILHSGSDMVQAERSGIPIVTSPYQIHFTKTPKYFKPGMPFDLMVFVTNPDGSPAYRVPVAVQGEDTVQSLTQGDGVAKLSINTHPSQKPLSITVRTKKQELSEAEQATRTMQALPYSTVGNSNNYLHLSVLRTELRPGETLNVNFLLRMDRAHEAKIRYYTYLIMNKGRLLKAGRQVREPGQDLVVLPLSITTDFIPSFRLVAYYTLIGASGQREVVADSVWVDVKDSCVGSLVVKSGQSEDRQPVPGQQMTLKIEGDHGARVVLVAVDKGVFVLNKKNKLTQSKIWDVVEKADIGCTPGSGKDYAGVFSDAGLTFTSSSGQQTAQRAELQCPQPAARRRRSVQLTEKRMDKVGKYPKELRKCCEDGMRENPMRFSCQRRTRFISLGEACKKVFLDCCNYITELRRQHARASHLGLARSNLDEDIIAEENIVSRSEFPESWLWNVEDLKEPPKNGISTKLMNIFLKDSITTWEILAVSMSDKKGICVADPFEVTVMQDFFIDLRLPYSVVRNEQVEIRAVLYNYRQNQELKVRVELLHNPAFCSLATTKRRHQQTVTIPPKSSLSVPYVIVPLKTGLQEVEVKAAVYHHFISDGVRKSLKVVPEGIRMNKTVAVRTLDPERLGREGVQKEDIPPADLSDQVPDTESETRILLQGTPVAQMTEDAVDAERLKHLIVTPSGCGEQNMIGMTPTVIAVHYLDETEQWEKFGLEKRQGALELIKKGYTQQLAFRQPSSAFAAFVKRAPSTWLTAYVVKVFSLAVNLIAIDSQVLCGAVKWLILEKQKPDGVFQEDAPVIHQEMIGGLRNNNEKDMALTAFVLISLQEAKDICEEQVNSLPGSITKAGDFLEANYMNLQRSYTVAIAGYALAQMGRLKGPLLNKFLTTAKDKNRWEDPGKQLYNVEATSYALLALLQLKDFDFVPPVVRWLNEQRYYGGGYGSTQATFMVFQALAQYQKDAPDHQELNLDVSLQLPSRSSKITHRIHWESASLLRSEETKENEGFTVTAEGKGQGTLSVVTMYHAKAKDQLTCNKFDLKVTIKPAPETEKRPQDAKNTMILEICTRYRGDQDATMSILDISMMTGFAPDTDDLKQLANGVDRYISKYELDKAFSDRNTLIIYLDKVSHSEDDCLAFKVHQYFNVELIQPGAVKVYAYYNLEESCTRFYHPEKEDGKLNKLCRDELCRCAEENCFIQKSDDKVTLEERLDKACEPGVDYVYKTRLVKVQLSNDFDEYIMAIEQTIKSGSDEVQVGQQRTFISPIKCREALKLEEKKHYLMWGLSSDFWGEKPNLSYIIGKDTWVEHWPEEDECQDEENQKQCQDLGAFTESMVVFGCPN
In words: SPR (Biacore T100) binding to C3 SNP1 P314L. How it is done: as §1
Single nucleotide polymorphism (SNP) in C3 has been observed across the population and certain SNPs were identified in genome-wide association studies (GWAS) to correlate with an increased risk to develop AMD. […] Very rare variants, which occur in less that 2.5% of the population include K155Q, R735W, S1619W, K65Q and R161W.
as §2

The target in the next data set is T4, human C3 R102G (Homo sapiens, UniProt P01024, R102G).
T4 construct: 6×His (N); made in house; host or cells: CHO (ExpiFectamine CHO Expression Kit)
T4 sequence (P01024 23-1663 R102G): as the sequence (P01024 23-1663 P314L) above, with R80G, L292P counted along it
In words: SPR (Biacore T100) binding to C3 SNP2 R102G. How it is done: as §1
Single nucleotide polymorphism (SNP) in C3 has been observed across the population and certain SNPs were identified in genome-wide association studies (GWAS) to correlate with an increased risk to develop AMD. Common SNP variants include P314L, which occurs in approximately 23.3% of population, and R102G, which has been reported to occur in approximately 26-29% of population. Very rare variants, which occur in less that 2.5% of the population include K155Q, R735W, S1619W, K65Q and R161W.
The inventors therefore measured the binding affinity of the scFv of the invention to the most commonly occurring C3 forms, i.e., R102G and P314L. Wild-type human C3, human C3 P314L and human C3 R102G are expressed in the CHO cell line using the ExpiFectamine CHO Expression Kit (Thermo Fisher Scientific). Proteins are expressed with N-terminal 6×His tag and purified using a HisTrap Excel HP column (GE Healthcare), followed by a size-exclusion chromatography step (SUPERDEX®20010/300GL; GE Healthcare).

Data set [4] in a line: Storage stability at 150 mg/ml, oligomerization by SE-HPLC. Format: physicochemical. The note with it: decrease in monomeric content versus start. As for the experimental part:
(§3) Clone I, clone II and clone III are tested for storage stability. Samples are concentrated to 150 mg/ml (Vivaspin20 centrifugal device, 5 kDa MWCO at 3800×g) and stored at 25° C. and 40° C. for up to 4 weeks. Samples are analyzed for oligomerization (SE-HPLC) and chemical degradation (IEX-HPLC). The starting monomeric purity as determined by SE-HPLC was 99.96% for each clone. The starting charge purity, as determined by IEX-HPLC was 98.07%, 97.16% and 96.76%, respectively for clone I, II and III.

Data set [5] in a line: Storage stability at 150 mg/ml, chemical degradation by IEX-HPLC. In kind it is physicochemical. As for the experimental part:
as §3

Chain of human C3 (P01024 23-1663): as the sequence (P01024 23-1663 P314L) above, with L292P counted along it
T2 sequence (P01024 23-1663): as the sequence (P01024 23-1663 P314L) above, with L292P counted along it

B1: Clone V: reformatted and humanized scFv variant of Clone IV, SEQ ID NO: 33 (protein)
scFv: MQLVLTQSPSASASLGASVKLTCTLSSAHKTYTIDWYQQQPEKGPRYLMQLKSDGSYTKGTGVPDRFSGSSSGAERYLTISSLQSEDEADYYCGTDYGGGYVFGGGTKLTVLGGGGGSGGGGSGGGGSGGGGSQVQVVESGGGSVQPGRSLRLSCAASGFSLYNYAMNWVRQAPGKGLEWIGIINTDGNTNYASWAKGRFTISTDNSKNTLYLQMNSLRAEDTASYYCPRAVGYHHHALDPWGQGTSVTVSS
modifications: ScFv
Regarding B1, the “Binding affinity to C3 and C3b compared to parental molecule Clone IV” value with human C3 is recorded as “lower binding affinity”. Further, the “Complement inhibition activity compared to parental molecule Clone IV” value with complement pathways is “retains its ability to inhibit the classical and alternative complement pathways”.

B2: Clone X: Clone VI with heavy chain framework substitutions, SEQ ID NO: 38 (protein)
scFv: MQLVLTQSPSASASLGASVKLTCTLSSAHKTYTIDWYQQQPEKGPRYLMQLKSDGSYTKGTGVPDRFSGSSSGAERYLTISSLQSEDEADYYCGTDYGGGYVFGGGTKLTVLGGGGGSGGGGSGGGGSGGGGSQVQVVESGGGSVQPGRSLRLSCTVSGFSLYNYAMNWVRQAPGKGLEWIGIINTDGNTNYASWAKGRFTISTDNSKNTVYLQMNSLRAEDTASYYCARAVGYHHHALDPWGQGTSVTVSS
modifications: ScFv
Consider B2, for which, in data set [1], the “Monomeric purity/content loss after two weeks incubation at 37° C.” value is 60.4%, the “Monomeric content after 2 weeks at 37° C.” value is listed as 39.3% and the “Monomeric content at start” value was 99.7%.

B3: Clone XI: disulfide bond stabilized variant of Clone X, SEQ ID NO: 39 (protein)
scFv: MQLVLTQSPSASASLGASVKLTCTLSSAHKTYTIDWYQQQPEKCPRYLMQLKSDGSYTKGTGVPDRFSGSSSGAERYLTISSLQSEDEADYYCGTDYGGGYVFGGGTKLTVLGGGGGSGGGGSGGGGSGGGGSQVQVVESGGGSVQPGRSLRLSCTVSGFSLYNYAMNWVRQAPGKGLEWIGIINTDGNTNYASWAKGRFTISTDNSKNTVYLQMNSLRAEDTASYYCARAVGYHHHALDPWGCGTSVTVSS
modifications: ScFv
On to B3, for which, in data set [1], the “Monomeric purity/content loss after two weeks incubation at 37° C.” value came out at 3.3%, the “Monomeric content after 2 weeks at 37° C.” value was determined as 96.5% and the “Monomeric content at start” value came out at 99.8%.

B4: Compound A3 Fab: NGM621 surrogate in a Fab format (antibody, V domains shown)
VH: QVQLVQSGAEVKKPGASVKVSCKASGYTFTDFYMDWVRQAPGQRLEWMGYIYPHNGGTTYNQQFTGRVTITVDKSASTAYMELSSLRSEDTAVYYCARRGGFDFDYWGQGTLVTVSS
VL: DIQMTQSPSSLSASVGDRVTITCKASENVDTYVSWYQQKPGKAPKLLIYGASNRYTGVPSRFSGSGSGTDFTFTISSLQPEDIATYHCGQSHSYPLTFGQGTKLEIKR
With B4, the Kd with human C3b (Table 19, SPR, read-out: Affinity human C3b) was over 34 nM.

B5: Clone VII: affinity maturation hit scFv, SEQ ID NO: 35 (protein)
scFv: MQLVLTQSPSASASLGASVKLTCTLSSAHKTYTIDWYQQQPEKGPRYLMQLKSEGSYTKGTGVPDRFSGSSSGAERYLTISSLQSEDSAVYYCGTEGVGGYVFGCGTKLTVLGGGGGSGGGGSGGGGSGGGGSQVQVVESGGGSVQPGRSLRLSCAVSGFSLYNYAMNWVRQAPGKCLEWIGIINVGGGTNYASWAKGRFTISTDNSKNTVYLQMNSLRAEDTASYYCARAVGYHHHALDPWGQGTSVTVSS
modifications: ScFv
Take B5: the “Binding affinity to C3 and C3b compared to parental molecule Clone IV” value with human C3 is “comparable binding affinity”. Besides, the “Complement inhibition activity compared to parental molecule Clone IV” value with complement pathways was “comparable”.

B6: Clone IX: affinity maturation hit scFv, SEQ ID NO: 37 (protein)
scFv: MQLVLTQSPSASASLGASVKLTCTLSSAHKTYTIDWYQQQPEKGPRYLMQLKSEGSYTKGTGVPDRFSGSSSGAERYLTISSLQSEDSAVYYCGTDGVGGYVFGCGTKLTVLGGGGGSGGGGSGGGGSGGGGSQVQVVESGGGSVQPGRSLRLSCAVSGFSLYNYAMNWVRQAPGKCLEWIGIINVGGGTNYASWAKGRFTISTDNSKNTVYLQMNSLRAEDTASYYCARAVGYHHHALDPWGQGTSVTVSS
modifications: ScFv
As to B6, the “Binding affinity to C3 and C3b compared to parental molecule Clone IV” value with human C3 was “comparable binding affinity”. Further, the “Complement inhibition activity compared to parental molecule Clone IV” value in the data set on complement pathways was “comparable”.

B7: Clone III: humanized anti-C3 scFv, VH SEQ ID NO: 24, VL SEQ ID NO: 25; scFv SEQ ID NO: 30 or 31 (protein)
scFv: MQLVLTQSPSASASLGASVKLTCTLSSAHKTYTIDWYQQQPEKCPRYLMQLKSEGSYTKGSGIPDRFSGSSSGAERYLTISSLQSEDEADYYCGTEGVGGYVFGGGTKLTVLGGGGGSGGGGSGGGGSGGGGSQVQLVESGGGSVQPGRSLRLSCAASGFTFSNYAMNWVRQAPGKGLEWVAIINVGGGTNYADSVKGRFTISRDNSKNTLYLQMNSLRAEDTASYYCARAVGYHHARLDPWGCGTSVTVSS
As to B7, the “kd C3b” value with human C3b (off-rate) was 3.1e-05 s⁻¹. In the data set with human C3b (on-rate), the “ka C3b” value was 250000 M⁻¹ s⁻¹. Besides, at cyno C3 (off-rate), the “kd cyno C3” value turned out to be 4.3e-05 s⁻¹. In addition, in the data set on cyno C3 (on-rate), the “ka cyno C3” value amounted to 200000 M⁻¹ s⁻¹. Besides, in [2] (off-rate), the “kd recombinant C3” value came to 3.5e-05 s⁻¹. Besides, in [2] (on-rate), the “ka recombinant C3” value worked out at 270000 M⁻¹ s⁻¹. The “Viscosity [mPa * s] Fully formulated at 150 g/L” value in data set [3] (10 mM His pH 5.5, 275 mM sucrose, 0.02% w/v Polysorbate20) is reported as 3.3 mPa * s. Moreover, the “Viscosity [mPa * s] Minimal buffer at 185 g/L” value in data set [3] (10 mM His pH 5.5) is given as 3.2 mPa * s. In the data set with human C3 P314L (off-rate), the “kd C3 SNP1 P314L” value came out at 3.2e-05 s⁻¹. Besides, the “ka C3 SNP1 P314L” value with human C3 P314L (on-rate) is 250000 M⁻¹ s⁻¹. For the same molecule, the “kd C3 SNP2 R102G” value with human C3 R102G (off-rate) turned out to be 3.2e-05 s⁻¹. Further, in the data set with human C3 R102G (on-rate), the “ka C3 SNP2 R102G” value came to 280000 M⁻¹ s⁻¹. Further, in data set [4], the “Storage stability, SEC 4 weeks at 25° C. [D %]” value is on record as 0.10 D % and the “Storage stability, SEC 4 weeks at 40° C. [D %]” value came to 0.84 D %. Further, the “Starting charge purity (IEX-HPLC)” value in data set [5] (before storage) is reported as 96.76%. Also, in data set [5] (decrease versus start), the “Storage stability, IEX 4 weeks at 25° C. [D %]” value worked out at 0.3 D % and the “Storage stability, IEX 4 weeks at 40° C. [D %]” value worked out at 3.6 D %. Also, in the data set with human C3 (off-rate), the “kd C3” value came out at 3.6e-05 s⁻¹. The “ka C3” value with human C3 (on-rate) was 240000 M⁻¹ s⁻¹.
